Laboratory results as given in US8889621B2, “Inhibiting binding of FGF23 to the binary FGFR-Klotho complex for the treatment of hypophosphatemia” (New York University, priority 2009, dated 2014).
Entries after “also recorded” stand apart in the source; their conditions may differ.

How the values were obtained:
βKlotho-FGF21 = target: T1, βKlotho-FGF21 (Mus musculus, UniProt Q99N32); test: SPR specificity: βKlotho binding to immobilized FGF21^29-209; design: species or system murine βKlotho, human FGF21; conditions: molar ratio of 2:1 to βKlotho
T1 construct: the ectodomain of murine βKlotho (F53 to L995) was expressed in HEK293 cells; FLAG (C); made in house; host or cells: HEK293 (βKlotho ectodomain); E. coli (FGF21)
T1 sequence (Q99N32 53-995): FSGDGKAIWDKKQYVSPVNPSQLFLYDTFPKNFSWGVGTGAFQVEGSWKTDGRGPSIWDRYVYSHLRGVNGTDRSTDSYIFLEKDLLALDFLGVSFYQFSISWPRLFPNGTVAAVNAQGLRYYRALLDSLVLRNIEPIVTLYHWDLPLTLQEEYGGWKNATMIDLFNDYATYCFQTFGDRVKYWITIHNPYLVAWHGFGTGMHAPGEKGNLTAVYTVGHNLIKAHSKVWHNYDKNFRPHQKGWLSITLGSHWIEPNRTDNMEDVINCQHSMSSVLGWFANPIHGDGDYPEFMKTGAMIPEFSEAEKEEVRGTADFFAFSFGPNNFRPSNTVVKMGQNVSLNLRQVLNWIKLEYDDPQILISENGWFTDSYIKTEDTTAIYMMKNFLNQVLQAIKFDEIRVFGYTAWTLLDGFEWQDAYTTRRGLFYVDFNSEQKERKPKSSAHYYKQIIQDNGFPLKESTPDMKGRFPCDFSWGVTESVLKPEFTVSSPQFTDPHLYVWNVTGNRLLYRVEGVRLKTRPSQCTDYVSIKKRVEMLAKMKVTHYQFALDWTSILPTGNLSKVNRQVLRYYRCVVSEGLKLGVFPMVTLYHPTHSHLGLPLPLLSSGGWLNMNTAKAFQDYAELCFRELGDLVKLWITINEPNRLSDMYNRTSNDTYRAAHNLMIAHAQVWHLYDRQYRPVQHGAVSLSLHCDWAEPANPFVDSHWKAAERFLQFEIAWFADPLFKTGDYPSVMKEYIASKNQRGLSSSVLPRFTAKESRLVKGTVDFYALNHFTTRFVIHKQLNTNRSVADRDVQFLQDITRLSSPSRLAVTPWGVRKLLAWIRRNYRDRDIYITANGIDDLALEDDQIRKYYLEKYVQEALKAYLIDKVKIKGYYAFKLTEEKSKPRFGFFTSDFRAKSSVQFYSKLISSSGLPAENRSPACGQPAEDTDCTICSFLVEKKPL

FGFR1c-βKlotho-FGF19 = target: T2, FGFR1c-βKlotho-FGF19 (UniProt P11362+Q99N32); test: SPR specificity: FGFR1c-βKlotho binding to immobilized FGF19^23-216; design: species or system human FGFR1c, murine βKlotho, human FGF19; conditions: 10-fold molar excess over FGFR1c-βKlotho
T2 construct: the ectodomain of murine βKlotho (F53 to L995) was expressed in HEK293 cells; FLAG (C); made in house; host or cells: E. coli (FGFR1c, FGF19); HEK293 (βKlotho ectodomain)
T2 sequence (P11362 142-365): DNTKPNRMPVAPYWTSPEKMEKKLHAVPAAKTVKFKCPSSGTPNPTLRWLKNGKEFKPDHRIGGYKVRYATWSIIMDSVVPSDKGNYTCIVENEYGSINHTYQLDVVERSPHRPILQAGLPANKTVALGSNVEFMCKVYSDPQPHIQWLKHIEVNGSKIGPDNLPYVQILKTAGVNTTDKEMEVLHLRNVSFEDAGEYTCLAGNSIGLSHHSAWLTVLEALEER
T2 sequence (Q99N32 53-995): T1 sequence (Q99N32 53-995)

B1: FGF23^180-251: 72-amino acid C-terminal tail of human FGF23 (S180 to I251), expressed in E. coli (protein, listed as Homo sapiens)
chain: SAEDDSERDPLNVLKPRARMTPAPASCSQELPSAEDNSPMASDPLGVVRGGRVNTHAGGTGPEGCRPFAKFI
βKlotho-FGF21
  inhibition of βKlotho binding to immobilized FGF21: failed to inhibit; also recorded: no inhibition
FGFR1c-βKlotho-FGF19
  inhibition of FGFR1c-βKlotho binding to immobilized FGF19: did not affect; also recorded: no inhibition
